# Assay: soluble on expression in E. coli; label from the status in PepcDB or PDB records
row,Sequence,soluble on expression in E. coli
1,MAHHHHHHMSEDESNSVSCSLSLESDGYSDEEYDTNLNKLIENESLNWIFVGGKGGVGKTTTSCSIAVQLSKRRESVLLLSTDPAHNTSDAFNQKFTNQPTLINSFDNLYCMEIDTNYSENTAFKLNKKEMFDNILPELLHSFPGIDEALCFAELMQSIKNMKYSVIVFDTAPTGHTLRLLAFPDLLKKALGYLINIREKLKGTLNVLKNFTNNEMEFDSLYEKINHLNAMSSSIQANFQNPMKTTFVCVCIPEFLSVYETERLIQELTKKNISCYNIVVNQVVFPLDSPNVNLENCKNLLSQIKNEQIQSYFNDLISKTEELEDVYISRRKLQSKYLTQIKNLYSNDFHIVCMPQLKNEIRGLNNISSFSEMLLQSKDIPIYKDNL,not soluble
2,MRSSAKQEELVKAFKALLKEEKFSSQGEIVAALQEQGFDNINQSKVSRMLTKFGAVRTRNAKMEMVYCLPAELGVPTT,soluble
3,MASMTGGQQMGRGSMAGVLPAHGTQHGIRLPLRSGLGGAPLGLRLPRETDEEPEEPGKKGSFVEMVDNLRGKSGQGYYVEMTVGSPPQTLNILVDTGSSNFAVGAAPHPFLHRYYQRQLSSTYRDLRKGVYVPYTQGKWEGELGTDLVSIPHGPNVTVRANIAAITESDKFFINGSNWEGILGLAYAEIARPDDSLEPFFDSLVKQTHVPNLFSLQLCGAGFPLNQSEVLASVGGSMIIGGIDHSLYTGSLWYTPIRREWYYEVIIVRVEINGQDLKMDCKEYNYDKSIVDSGTTNLRLPKKVFEAAVKSIKAASSTEKFPDGFWLGEQLVCWQAGTTPWNIFPVISLYLMGEVTNQSFRITILPQQYLRPVEDVATSQDDCYKFAISQSSTGTVMGAVIMEGFYVVFDRARKRIGFAVSACHVHDEFRTAAVEGPFVTLDMEDCGYNIPQTDES,soluble
4,AINQANRSVCITTPYFVPSADLLATLKMTAQRGIKVDIIIPKKNDSLMVQWASRAFYGELLEAGVQIHEFDGGLLHTKSVVIDQQFCLVGTVNLDMRSLWLNFELTLAVDDLEFTQQMHWLQQQYIDQSHSVVYAEWEQRPWYNRFLERVFYLFNPLL,not soluble
5,MAHHHHHHMCLDWKYNYMKTRLKVLENNEKDEEIERKLQNNLNIKSLGYVLKAIEILKRKEKMKRYSTFDRHLSYFKKNNINKPQYNEKKILEHRLWAIGCELIEVIGDGNCLFRSISRNLFHKQKYHMYVRKKCVEYMINYKEEYSIYFENNEFQQYIKNMSKNGYWGDELCIKATADAFDCIIYIITSTLENWHLKYESKNNNGMYKKCVFLAYSSPTHYDCFKLMQR,not soluble
6,MGKKHKKHKSDKHLYEEYVEKPLKLVLKVGGNEVTELSTGSSGHDSSLFEDKNDHDKHKDRKRKKRKKGEKQIPGEEKGRKRRRVKEDKKKRDRDRVENEAEKDLQCHAPVRLDLPPEKPLTSSLAKQEEVEQTPLQEALNQLMRQLQRKDPSAFFSFPVTDFIAPGYSMIIKHPMDFSTMKEKIKNNDYQSIEELKDNFKLMCTNAMIYNKPETIYYKAAKKLLHSGMKILSQERIQSLKQSIDFMADLQKTRKQKDGTDTSQSGEDGGCWQREREDSGDAEAHAFKSPSKENKKKDKDMLEDKFKSNNLEREQEQLDRIVKESGGKLTRRLVNSQCEFERRKPDGTTTLGLLHPVDPIVGEPGYCPVRLGMTTGRLQSGVNTLQGFKEDKRNKVTPVLYLNYGPYSSYAPHYDSTFANISKDDSDLIYSTYGEDSDLPSDFSIHEFLATCQDYPYVMADSLLDVLTKGGHSRTLQEMEMSLPEDEGHTRTLDTAKEMEITEVEPPGRLDSSTQDRLIALKAVTNFGVPVEVFDSEEAEIFQKKLDETTRLLRELQEAQNERLSTRPPPNMICLLGPSYREMHLAEQVTNNLKELAQQVTPGDIVSTYGVRKAMGISIPSPVMENNFVDLTEDTEEPKKTDVAECGPGGS,soluble
7,MGSDKIHHHHHHMNYKITTLAENSVYGKGLQGEHGLSLLVEAGEHKVLFDTGASDLFLRNARLLGLDLSDVEYVVLSHGHRDHTGGLYAFLKMNSVAKVVCKREVFRKKFKNERENGMLHPEALDKSRFWLVDETTEIVPGVFAFPDVKVVDRNDTHFEHFFTEIEGEMRPDTFEDELALVLKGEKSLSVLSACSHRGITNIIRAVQNAFPGLGLKLVMGGFHIHNAEEEKFNVISAFLGMKLPKRLGVCHCTGIDKYALFRQQFNDRVFYNYTGWVETI,not soluble
8,MGKGVRDPGSDGSLRRKELAMIKVEDMMTRHPHTLLRTHTLNDAKHLMEALDIRHVPIVDANKKLLGIVSQRDLLAAQESSLQRSAQGDSLAFETPLFEVMHTDVTSVAPQAGLKESAIYMQKHKIGCLPVVAKDVLVGIITDSDFVTIAINLLELQEESEPDELDEEQ,not soluble
9,MGSDKIHHHHHHMLRECDYSQALLEQVNQAISDKTPLVIQGSNSKAFLGRPVTGQTLDVRCHRGIVNYDPTELVITARVGTPLVTIEAALESAGQMLPCEPPHYGEEATWGGMVACGLAGPRRPWSGSVRDFVLGTRIITGAGKHLRFGGEVMKNVAGYDLSRLMVGSYGCLGVLTEISMKVLPRPRASLSLRREISLQEAMSEIAEWQLQPLPISGLCYFDNALWIRLEGGEGSVKAARELLGGEEVAGQFWQQLREQQLPFFSLPGTLWRISLPSDAPMMDLPGEQLIDWGGALRWLKSTAEDNQIHRIARNAGGHATRFSAGDGGFAPLSAPLFRYHQQLKQQLDPCGVFNPGRMYAEL,not soluble
10,MGSDKIHHHHHHMLLHIPNVLNAEQLRIVRERLDTAGDAWVDGRATAGYQGAPVKRNQQIAEHTPIARELGDVILASIERNPLFISSVLPNQVYPPLFNRYEGGMQFGSHVDGAVRVLPNGVKLRTDVSVTLFISDPADYDGGELVIEDTYGVQQVKLPAGDMIVYPATSLHQVTPVTRGVRVASFFWVQSLVRSDTQRAMLFDMDTAIQRLNATNADDAARRSLVGIYHNLLRTWSEP,not soluble
11,MEEGSAIDYQRVPPLSGTHYASTVSAGFYEATPLLGSLVHTLEHGAVIVYYDPDEISPEARQSLREFSSVHTGTWRSVVAVPNPNDDPRATYVVTAWQHELTIDSYDAETVHAFLSEYLGRGPENPVRLEHHHHHH,soluble
12,MSLDHFQIDHIAIAVPSLNTSLPLFEQALQATASHEERLPHHHINAVFINGRGVGYELIEPHPSNVSMQRFLAKQNNRPAFHHIAFSVANIETAIGMLKEKHVRLTSELPLIGSFGRKVAFIHPSSTGGLLVELCEGKTEGHHHHHH,soluble
13,MAHHHHHHMGTLEAQTQGPGSMLNKVMLIGYLGDDPESKTMTSGAEVVNFRMATFESYMNKNTHQKVEKTEWHSVVVFNPHFAKIALQYLHKGSKVYIEGKLQTRKWQDKNGHDRYTTEIVLPQYKGELHLLDAKKEQSASSSSVTSQSYAIASGADDYGISAHDSMPF,soluble
14,MKALRSSSRLSRWREWAAPLWVGCNFSAWMRLLIRNRFAVHHSRWHFAVLYTFLSMVNSCLGLWQKIVFGRRVAETVIADPPIFIVGHWRTGTTLLHELLVVDDRHTGPTGYECLAPHHFLLTEWFAPYVEFLVSKHRAMDNMDLSLHHPQEDEFVWCMQGLPSPYLTIAFPNRPPQYEEYLDLEQVAPRELEIWKRTLFRFVQQVYFRRRKTVILKNPTHSFRIKVLLEVFPQAKFIHIVRDPYVVYPSTIHLHKALYRIHGLQQPTFDGLDDKVVSTYVDLYRKLDEGRELVDPTRFYELRYEDLIGDPEGQLRRLYQHLGLGDFECYLPRLRQYLADHADYKTNSYQLTVEQRAIVDEHWGEIIDRYGYDRHTPEPARLRPAVGG,not soluble
15,MHYDVIVIGGGPSGLMAAIGAAEEGANVLLLDKGNKLGRKLAISGGGRCNVTNRLPLDEIVKHIPGNGRFLYSAFSIFNNEDIITFFENLGVKLKEEDPGRMFPVSNKAQSVVDALLTRLKDLGVKIRTNTPVETIEYENGQTKAVILQTGEVLETNHVVIAVGGKSVPQTGSTGDGYAWAEKAGHTITELFPTEVPILSNEPFIRDRSLQGLALRDINLSVLNPKGKAIISHKMDMLFTHFGLSGPAALRCSQFVVKALKKFKTNTIQMSIDALPEENSEQLFQRMLKQMKEDPKKGIKNVLKGYVPERYFLFLLEKNEIDGSEQAGQVSHEKIRALVKDFKEFTVNVNGTQSIEKAFVTGGGVSVKEINPKEMSSKFTNGLYFCGEVLDIHGYTGGYNITSALVTGRIAGTTAGENAKMQY,soluble
16,MGSDKIHHHHHHMANEATQELFQVLDNTAIILQNELEISYLEAVYETGENLFQKEVLQKEELSSEKQLKLQESYESIELENFSNEEIRKGLQLALLKGMKHGIQVNHQMTPDSIGFIVAYLLEKVIQKKKNISILDPACGTANLLTTVINQLELKGDVDVHASGVDVDDLLISLALVGADLQRQKMTLLHQDGLANLLVDPVDVVISDLPVGYYPDDENAKTFELCREEGHSFAHFLFIEQGMRYTKPGGYLFFLVPDAMFGTSDFAKVDKFIKKNGHIEGIIKLPETLFKSEQARKSILILRKADVNVKPPKEVLLANLSSLTDPSVTAPILAEIENWFKSKQ,not soluble
17,MSVEPNHYLEITRSHVHQIYRELETSGKVITVDLVRKPYYDVDEDNKTLLQVFREHNEQSRKLIGKDFISKTVQRYETTTRYLEEFIKKEYQLSDIALNNLEANFISKFDAFLKIEKGCAQNSAITRLKNLKKIIRIALENDWIKKDPFAYYRFKLKETYPEFLTMDEIKIILAKEFTIKRVEQVRDVFIFCSYTGLAFSDVKDLSPEHLLKDNKGELWIKIFLSFHSSVFSSKNLHRLNTSLAKSMIQIKF,not soluble
18,GMTNTTYVQEYHAIVEVLSKYNEGGKKADSTIMRPAFSSQATIFGVDVDNKLTGGPIQGLFDVIDNVFHPSPEAKAAIARIDIVGTAASARIDTDDISGFRFTDFFNLLKVEGKWTVVSKIYHTHPSA,soluble
19,TVKSFVMRAGRMTEGQQRGLDLGWPKFGLELSDEVQDFDAIFGRQAPRTFEIGFGMGHSTLEMAAAAPDIDFIGVEVHKPGVGALLNGLLTQGLGNVRVYSCDALEVLRHCVADASLDRLLLFFPDPWHKKRHHKRRIVQPEFAELVRRKLKVGGVLHMATDWEPYAEHMLDVMSAAPGYRNQAEDGRFVPRPQERPVTKFERRGERLGHGVWDLKFER,not soluble
20,MFRHVAQNLGSRNTSIQSYRLLRTRWERGYLKDLYHRRQILGADPAISRSSYPNCSVQVRNHHCSADKSTLQWAPIKTSIDNSSDDFAANTAEMKVLVEDLKAKISKIEQAGGEKAVKLHRSRGKMLARERIDGIVDAGSPFIEFSQLAGYEMYGKEEVPSGGILTGVGIVSGRVCVIVANDATVKGGTYYPITVKKHLRAQEIARENKLPCIYLVDSGGANLPRQADIFADSQHFGRIFYNQATMSSEGIPQLAVVMGSCTAGGAYVPAMSDQAIIVKGTGTVFLGGPPLVKAATGEEISAEELGGADLHCGESGVTDYYAHNDKHALYLARSCIAGLPPVEEHMTFNPNADEPLYPAEEIYGIVGSNLKKTYDVREVIARIVDGSRFHEFKERYGETLVTGFATIYGQRVGILANNGVLFAESAMKGSHFIELCCQRKIPLLFLQNITGFMVGRDAEAGGIAKHGAKLVTAVACAKVPKITVLVGGSYGAGNYGMCGRGYSPRYVFMWPNSRISVMGGEQAANVLSTVQKEKKKREGADWTDQQDLELRKPVEEKFEKEGHPYFASARLWDDGVIDPKDTRKVLGLAFQSTLQKPIPETKFGVFRM,not soluble

# From the DeepSol protein solubility set
